Patent US20170014524A1 (CALIFORNIA INSTITUTE FOR BIOMEDICAL RESEARCH, published 2017)

B1: anti-CXCR4 IgG antibody HLCX (antibody, V domains shown)
VH: QVQLVESGGGLVQPGGSLRLSCAASGFNIKDTYIHWVRQAPGKGLEWVARIYPTNGYTRYADSVKGRFTISADTSKNTAYLQMNSLRAEDTAVYYCSRETKKYQSYRKCRGGRRWCYQKSYTYNYEDYWGQGTLVTVSS
VL: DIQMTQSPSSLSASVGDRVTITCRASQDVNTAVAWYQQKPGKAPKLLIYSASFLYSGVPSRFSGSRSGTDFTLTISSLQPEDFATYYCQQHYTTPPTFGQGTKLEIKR
B2: anti-CXCR4-ValCit-MMAE conjugate (antibody, human IgG1, kappa, V domains shown)
VH: B1 VH
VL: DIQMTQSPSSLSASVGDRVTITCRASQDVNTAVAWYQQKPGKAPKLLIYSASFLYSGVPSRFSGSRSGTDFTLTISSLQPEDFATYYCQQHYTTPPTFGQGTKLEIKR
modifications: auristatin on a Val-Cit linker coupled by NHS ester to surface-exposed lysine residues, non-specific; estimated DAR ~2-3
B3: anti-CXCR4-NC-MMAE conjugate (antibody, human IgG1, kappa, V domains shown)
VH: B1 VH
VL: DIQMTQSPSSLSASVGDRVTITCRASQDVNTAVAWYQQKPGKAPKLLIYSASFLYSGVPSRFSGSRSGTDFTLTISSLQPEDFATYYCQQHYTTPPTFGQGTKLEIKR
modifications: MMAE on a non-cleavable linker coupled by NHS ester to surface-exposed lysine residues, non-specific; estimated DAR ~2-3

Molecular target: CXCR4 (C-X-C chemokine receptor type 4) (UniProt P61073 1-352, limits assumed)
Experiment: cell-based or functional assay

Sequence of CXCR4 (C-X-C chemokine receptor type 4) (P61073 whole entry): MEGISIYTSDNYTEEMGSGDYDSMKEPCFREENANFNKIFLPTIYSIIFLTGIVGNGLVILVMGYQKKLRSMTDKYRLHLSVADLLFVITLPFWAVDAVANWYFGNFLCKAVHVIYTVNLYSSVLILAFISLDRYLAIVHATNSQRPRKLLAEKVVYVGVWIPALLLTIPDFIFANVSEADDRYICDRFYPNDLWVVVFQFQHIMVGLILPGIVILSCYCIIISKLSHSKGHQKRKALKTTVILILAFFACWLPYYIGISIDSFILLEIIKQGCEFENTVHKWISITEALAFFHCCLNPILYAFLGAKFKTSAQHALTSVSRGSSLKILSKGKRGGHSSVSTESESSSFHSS

Binder	IC50 (nM), cytotoxicity, Ramos (CXCR4+) cells, CellTiter-Glo, 4 days [nM]	IC50 (nM), cytotoxicity, Jurkat (CXCR4+) cells, CellTiter-Glo, 4 days [nM]
B1	89.4	–
B2	2	9.2
B3	0.89	4.6
